Reference: patent CN114028562A (JIANGSU QYUNS BIOMEDICAL CO LTD, dated 2022)

B1: QX008N(HZD8G2-57) (antibody, V domains shown)
VH: EVQLVESGGGLVQPGGSLRLSCAASGFSLSSYYMSWVRQAPGKGLEWVGFISYGGSAYHATWAQGRFTISKDNSKNTLYLQMNSLRAEDTAVYYCAREFRSMTYGAEWGIWGQGTLVTVSS
VL: AYQMTQSPSSVSASVGDRVTITCQASESIYDTLAWYQQKPGKAPKLLIYSASSLASGVPSRFSGSGSGTDFTLTISSLQPEDFATYYCQQGYTMPDVDKNPFGGGTKVEIKR
B2: Tezepelumab (antibody, V domains shown)
VH: QMQLVESGGGVVQPGRSLRLSCAASGFTFRTYGMHWVRQAPGKGLEWVAVIWYDGSNKHYADSVKGRFTITRDNSKNTLNLQMNSLRAEDTAVYYCARAPQWELVHEAFDIWGQGTMVTVSS
VL: SYVLTQPPSVSVAPGQTARITCGGNNLGSKSVHWYQQKPGQAPVLVVYDDSDRPSWIPERFSGSNSGNTATLTISRGEAGDEADYYCQVWDSSSDHVVFGGGTKLTVLG

Key:
[1] = biological target: T1, 人胸腺基质淋巴细胞生成素(Human Thymic Stromal Lymphopoietin, TSLP) (human, UniProt Q969D9 29-159); assay: SPR, Biacore T200, 25°C, antibody captured on Protein A chip, TSLP as analyte, 1:1 model, mean of three runs
T1 construct: also called 人TSLP; hTSLP

食蟹猴TSLP = 食蟹猴TSLP (cynomolgus monkey, UniProt A0A7N9CAT7 29-159); assay: cell-based or functional assay
[2] = biological target: T1, 人胸腺基质淋巴细胞生成素(Human Thymic Stromal …); assay: cell-based or functional assay

Chain of 食蟹猴TSLP (A0A7N9CAT7 entry or part of it): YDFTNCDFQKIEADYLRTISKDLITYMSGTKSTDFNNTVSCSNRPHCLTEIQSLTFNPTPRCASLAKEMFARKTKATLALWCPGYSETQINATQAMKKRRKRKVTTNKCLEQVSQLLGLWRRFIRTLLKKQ

| Binder | Kd [1] | koff [1] | kon [1] | IC50, inhibition of cynomolgus TSLP-induced STAT5 phosphorylation in SW756-STAT5-Luciferase reporter cells (食蟹猴TSLP) | IC50, inhibition of human TSLP-induced STAT5 phosphorylation in SW756-STAT5-Luciferase reporter cells [2] | IC50, inhibition of human TSLP-induced TARC(CCL17) release from human PBMC [2] | IC50, inhibition of human TSLP-induced TARC(CCL17) release from human whole blood [2] |
| --- | --- | --- | --- | --- | --- | --- | --- |
| B1 | 0.0175 nM | 2.99e-05 s⁻¹ | 1.74e+06 M⁻¹ s⁻¹ | 0.889 ng/mL | 0.837 ng/mL | 77.1 ng/mL | 0.839 ng/mL |
| B2 |  |  |  | 1.88 ng/mL |  |  |  |
